Residue numbers refer to the chain shown, from its start. Names may count otherwise.
T1: human claudin 18A1 (CLD18A1) (human, UniProt P56856 1-261)
T1 construct: also called CLD18.1; claudin 18 splice variant 1
T1 sequence: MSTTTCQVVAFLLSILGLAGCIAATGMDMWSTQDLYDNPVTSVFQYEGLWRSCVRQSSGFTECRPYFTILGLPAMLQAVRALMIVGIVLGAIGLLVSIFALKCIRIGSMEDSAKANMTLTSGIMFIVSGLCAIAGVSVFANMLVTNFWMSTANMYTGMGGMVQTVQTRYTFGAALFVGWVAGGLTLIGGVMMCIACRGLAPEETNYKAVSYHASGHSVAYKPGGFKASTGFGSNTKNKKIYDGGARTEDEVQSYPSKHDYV

B1: humanized antibody hu2B1-S54A (full antibody) (antibody, human IgG1, kappa, V domains shown)
VH: QVQLVQSGAEVKKPGASVKVSCKASGYTFTSYTMHWVRQAPGQGLEWMGYINPASGYTNYNQKFKDRVTMTRDTSTSTAYMELSSLRSEDTAVYYCARIYYGNSFAYWGQGTLVTVSS
VL: DIVMTQSPDSLAVSLGERATINCKSSQSLLNSGNQKNYLTWYQQKPGQPPKLLIYWASTRESGVPDRFSGSGSGTDFTLTISSLQAEDVAVYYCQNDYSYPLTFGGGTKVEIKR
B2: humanized antibody hu8E5-2I (full antibody) (antibody, human IgG1, kappa, V domains shown)
VH: QVQLQESGPGLIKPSQTLSLTCTVSGGSISSGYNWHWIRQPPGKGLEWIGYIHYTGSTNYNPALRSRVTISVDTSKNQFSLKLSSVTAADTAIYYCARIYNGNSFPYWGQGTTVTVSS
VL: B1 VL with L30F, D97A, Y100F, L102Y, V110L
B3: hu8E5 scFv fused to human IgG1 Fc portion (Fc fusion)
scFv: QVQLQESGPGLVKPSQTLSLTCTVSGGSISSGYNWHWIRQPPGKGLEWIGYIHYTGSTNYNPALRSRVTISVDTSKNQFSLKLSSVTAADTAVYYCARIYNGNSFPYWGQGTTVTVSSGGGGSGGGGSGGGGSDIVMTQSPDSLAVSLGERATINCKSSQSLFNSGNQKNYLTWYQQKPGQPPKLLIYWASTRESGVPDRFSGSGSGTDFTLTISSLQAEDVAVYYCQNAYSFPYTFGGGTKLEIKR
notes: also called hu8E5-S62A; not shown: human IgG1 Fc portion
B4: hu8E5-2I scFv fused to human IgG1 Fc portion (Fc fusion)
scFv: B3 scFv with V12I, V93I
notes: also called mutant hu8E5-2I; not shown: human IgG1 Fc portion
B5: 2B1 scFv_Fc fusion antibody (scFv of 2B1 fused to human IgG1 Fc portion) (Fc fusion)
scFv: QVQLQQSGAELARPGASVKMSCKASGYTFTSYTMHWVKQRPGQGLEWIGYINPSSGYTNYNQKFKDKATLTADKSSSTAYMQLSSLTSEDSAVYYCARIYYGNSFAYWGQGTTVTVSSGGGGSGGGGSGGGGSDIVMTQSPSSLTVTAGEKVTMSCKSSQSLLNSGNQKNYLTWYQQKPGQPPKLLIYWASTRESGVPDRFTGSGSGTDFTLTISSVQAEDLAVYYCQNDYSYPLTFGAGTKLELKR
notes: also called murine anti-2B1 ScFv; not shown: human IgG1 Fc portion
B6: 2B1-S54A scFv_Fc fusion antibody (Fc fusion)
scFv: B5 scFv with S54A
notes: not shown: human IgG1 Fc portion
B7: 2B1-N52D scFv_Fc fusion antibody (Fc fusion)
scFv: B5 scFv with N52D
notes: as for B6
B8: 8E5 scFv_Fc fusion antibody (scFv of 8E5 fused to human IgG1 Fc portion) (Fc fusion)
scFv: DVQLQESGPDLVKPSQSLSLTCTVTGYSITSGYNWHWIRQFPGNKMEWMGYIHYTGSTNYNPSLRSRISITRDTSKNQFFLQLNSVTTDDTATYYCTRIYNGNSFPYWGQGTSVTVSSGGGGSGGGGSGGGGSDIVMTQSPSSLTVTPGEKVTMTCKSSQSLFNSGNQKNYLTWYQQRPGQPPKMLIYWASTRESGVPDRFTGSGSGTDFTLTISSVQAEDLAVFYCQNAYSFPYTFGGGTKLEIKR
notes: also called parent antibody 8E5; not shown: human IgG1 Fc portion
B9: hu2B1-S54A scFv fused to human IgG1 Fc portion (Fc fusion)
scFv: QVQLVQSGAEVKKPGASVKVSCKASGYTFTSYTMHWVRQAPGQGLEWMGYINPASGYTNYNQKFKDRVTMTRDTSTSTAYMELSSLRSEDTAVYYCARIYYGNSFAYWGQGTLVTVSSGGGGSGGGGSGGGGSDIVMTQSPDSLAVSLGERATINCKSSQSLLNSGNQKNYLTWYQQKPGQPPKLLIYWASTRESGVPDRFSGSGSGTDFTLTISSLQAEDVAVYYCQNDYSYPLTFGGGTKVEIKR
notes: also called humanized hu2B1-S54A; not shown: human IgG1 Fc portion
B10: murine monoclonal antibody 3E12 (hybridoma supernatant) (antibody, V domains shown)
VH: QVQLQQSGPELVKPGALVKISCKASGYTFTSYDINWVKQRPGQGLEWIGWIYPGDGSTKYNEKFKGKATLTADKSSSTAYMQLSSLTSENSAVYFCARGGYRYDEAMDYWGQGTTVTVSS
VL: QIVLTQSPAIMSASPGEKVTMTCSASSSISYMHWYQQKPGTSPKRWIYDTSKLASGVPARFSGSGSGTSYSLTISSMEAEDAATYYCHQRSSYPYTFGGGTKLEIKR
notes: Mouse hybridoma antibody tested as supernatant
B11: murine monoclonal antibody 8E5 (hybridoma supernatant) (antibody, V domains shown)
VH: DVQLQESGPDLVKPSQSLSLTCTVTGYSITSGYNWHWIRQFPGNKMEWMGYIHYTGSTNYNPSLRSRISITRDTSKNQFFLQLNSVTTDDTATYYCTRIYNGNSFPYWGQGTSVTVSS
VL: DIVMTQSPSSLTVTPGEKVTMTCKSSQSLFNSGNQKNYLTWYQQRPGQPPKMLIYWASTRESGVPDRFTGSGSGTDFTLTISSVQAEDLAVFYCQNAYSFPYTFGGGTKLEIKR
notes: as for B10
B12: murine monoclonal antibody 2B1 (hybridoma supernatant) (antibody, V domains shown)
VH: QVQLQQSGAELARPGASVKMSCKASGYTFTSYTMHWVKQRPGQGLEWIGYINPSSGYTNYNQKFKDKATLTADKSSSTAYMQLSSLTSEDSAVYYCARIYYGNSFAYWGQGTTVTVSS
VL: DIVMTQSPSSLTVTAGEKVTMSCKSSQSLLNSGNQKNYLTWYQQKPGQPPKLLIYWASTRESGVPDRFTGSGSGTDFTLTISSVQAEDLAVYYCQNDYSYPLTFGAGTKLELKR
notes: as for B10
B13: murine monoclonal antibody 4A11 (hybridoma supernatant) (antibody, V domains shown)
VH: QIQLVQSGPELKKPGETVKISCKASGYTFTNYGMNWVKQAPGKGLKWMGWINTNTGEPTYAEEFKGRFAFSLETSASTAYLQINNLKNEDTATYFCARFSYGNSFAYWGQGTTVTVSS
VL: B12 VL with T12S, T14S, T40A, W56G, Y98H
notes: Mouse hybridoma antibody tested as supernatant; the latter is used

target: human claudin 18A2 (CLD18A2) (human); experiment: cell-based or functional assay

ADCC effect (LDH release), antibody 20 µg/ml, effector-to-target ratio 50:1 | Binder
62.8% | B1
72.9% | B2

target: T2, human claudin 18A2 (CLD18A2) (human); experiment: flow cytometry, scFv_Fc on HEK293 cells stably transfected with human CLD18A2
T2 construct: also called CLD18.2; CLDN18A2
Method: Binding of anti-Claudin 18A2 scFv_Fc fusion antibody to HEK293 cells stably transfected with CLD18A2 was determined by flow cytometry. Experimental data was analyzed using GraphPad Prism and Guava easyCyte™ HT System instrument as described in Example 1 to obtain EC50 value.

EC50 | fold increase of affinity against the parent antibody 8E5 | Binder
107 nM | – | B3
9.22 nM | 5 fold | B4
3.56 nM | – | B5
3.85 nM | – | B6
6.11 nM | – | B7
49.2 nM | – | B8
18.6 nM | – | B9

target: T2, human claudin 18A2 (CLD18A2); experiment: flow cytometry, hybridoma supernatant on HEK293-CLD18A2 against HEK293-CLD18A1
Source text: (§1) Individual cells were screened for anti-CLD18A2 monoclonal antibody by flow cytometry, and HEK293 cells (HEK-CLD18A2) stably expressing human CLD18A2 were used for primary screening by flow cytometry using a Guava easyCyte™ HT System instrument. The binding of the antibody to human CLD18A1 and CLD18A2 transformants was then compared by flow cytometry. The instrument used was the Guava easyCyte™ HT System.
(§2) After multiple rounds of preparation and screening of hybridomas, the inventors found several antibodies with relatively ideal binding properties.

fold difference of average fluorescence intensity, CLD18A2 against CLD18A1 cells | Binder
> 5 times | B10
> 5 times | B11
> 5 times | B12
> 5 times | B13

target: T1, human claudin 18A1 (CLD18A1); experiment: flow cytometry, hybridoma supernatant on HEK293 cells stably transfected with human CLD18A1
Source text: as §1, §2

binding result | Binder
no binding | B10
no binding | B11
no binding | B12
no binding | B13

From patent US11111295 (CAFA THERAPEUTICS, dated 2021)
